{
  "source": "patent US20210403506A1",
  "about": "(XDCEXPLORER SHANGHAI, published 2021)",
  "key": {"[1]": {"target": "T1, human Chemokine like receptor 1 (human, UniProt Q99788 1-373)", "T1 sequence (looked up)": "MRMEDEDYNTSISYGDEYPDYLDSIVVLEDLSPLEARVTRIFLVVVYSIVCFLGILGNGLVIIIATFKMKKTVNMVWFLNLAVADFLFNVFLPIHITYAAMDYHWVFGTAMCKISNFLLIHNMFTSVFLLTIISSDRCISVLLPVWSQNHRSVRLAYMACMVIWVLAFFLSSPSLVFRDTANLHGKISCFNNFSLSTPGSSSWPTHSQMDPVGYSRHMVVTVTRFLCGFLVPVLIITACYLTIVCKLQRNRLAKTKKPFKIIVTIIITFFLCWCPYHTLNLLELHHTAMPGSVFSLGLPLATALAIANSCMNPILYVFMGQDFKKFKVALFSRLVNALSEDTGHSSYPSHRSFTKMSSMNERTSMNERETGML", "assay": "cell-based or functional assay"}, "[2]": {"target": "T1, human Chemokine like receptor 1", "assay": "cell-based or functional assay", "remark": "listed apart in the source"}},
  "note": "Read-outs that look alike come from different tables or passages of the source. Square brackets hold non-standard residues; d marks the D form. Ends that are not written are not given here. Tic = O=C(O)[C@@H]1Cc2ccccc2CN1",
  "data": [
    {"binder": "[dY]FLP[dS]QF[dA][Tic]S-OH", "note": "[YW-3]", "values": [
      {"measurement": "EC50 (µM), activation of Tango CMKLR1-bla U2OS cells", "setting": "[1]", "value": 0.019, "unit": "µM"}
    ]},
    {"binder": "{2,6‑dihydroxybenzoyl}-[dY]FLP[dS]QF[dA][Tic]S-OH", "note": "[YW-128]", "values": [
      {"measurement": "EC50 (µM), activation of Tango CMKLR1-bla U2OS cells", "setting": "[2]", "value": 0.02, "unit": "µM"}
    ]},
    {"binder": "{2,3,4‑trihydroxybenzoyl}-[dY]FLP[dS]QF[dA][Tic]S-OH", "note": "[YW-129]", "values": [
      {"measurement": "EC50 (µM), activation of Tango CMKLR1-bla U2OS cells", "setting": "[2]", "value": 0.0091, "unit": "µM"}
    ]}
  ]
}
